This passage reports Estimated half-maximal effective antibody concentration (ng/mL), plaque neutralisation on Vero cells and binding of RSV to the coated mAb, % of binding with control IgG results from patent US20180030119A1.

Assay [1] deals with F protein of RSV reference strain RSV-A Long (ATCC VR-26), on virus (RSV-A Long (ATCC VR-26)) (UniProt P12568). Kind of assay: cell-based or functional assay.
In assay [2] the target is F protein of RSV reference strain RSV-B (ATCC VR 1580), on virus (RSV-B (ATCC VR 1580)) (UniProt P13843). As to the kind of experiment: cell-based or functional assay.
Sequence of F protein of RSV reference strain RSV-B (ATCC VR 1580), on virus (RSV-B (ATCC VR 1580)) (P13843 26-574): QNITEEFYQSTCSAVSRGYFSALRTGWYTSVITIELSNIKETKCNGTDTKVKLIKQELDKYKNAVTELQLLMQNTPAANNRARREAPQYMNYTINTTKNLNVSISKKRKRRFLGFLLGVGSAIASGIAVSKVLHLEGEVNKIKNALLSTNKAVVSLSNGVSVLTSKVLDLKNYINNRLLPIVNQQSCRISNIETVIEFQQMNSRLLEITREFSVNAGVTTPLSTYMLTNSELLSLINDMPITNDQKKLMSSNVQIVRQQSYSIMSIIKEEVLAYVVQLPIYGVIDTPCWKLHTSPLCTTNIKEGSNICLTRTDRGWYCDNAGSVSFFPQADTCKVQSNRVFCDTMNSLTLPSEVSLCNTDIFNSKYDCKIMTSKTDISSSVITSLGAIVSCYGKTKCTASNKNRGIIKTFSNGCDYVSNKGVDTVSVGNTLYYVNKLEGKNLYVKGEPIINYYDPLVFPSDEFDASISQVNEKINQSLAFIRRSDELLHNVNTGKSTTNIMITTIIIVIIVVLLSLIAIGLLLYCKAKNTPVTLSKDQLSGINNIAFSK
Assay [3] deals with F protein on intact RSV particles (Example 11, strain not stated) (RSV, strain not stated). Kind of assay: competition ELISA: RSV particles pre-incubated with inhibiting mAb at 20 ug/mL, then added to plates coated with AR201 (competitor). (In general: ELISA stands for enzyme-linked immunosorbent assay.)
Assay [4] shares this target. As to the kind of experiment: competition ELISA: RSV particles pre-incubated with inhibiting mAb at 20 ug/mL, then added to plates coated with palivizumab (competitor, self).
For assay [5] the target is unchanged. As to the kind of experiment: competition ELISA: RSV particles pre-incubated with control IgG at 20 ug/mL, plates coated with AR201; this is the reference set to 100 %.
Assay [6] has the same target. Kind of assay: competition ELISA: RSV particles pre-incubated with control IgG at 20 ug/mL, plates coated with palivizumab; this is the reference set to 100 %.

Sequence of F protein of RSV reference strain RSV-A Long (ATCC VR-26), on virus (RSV-A Long (ATCC VR-26)) (P12568 26-574): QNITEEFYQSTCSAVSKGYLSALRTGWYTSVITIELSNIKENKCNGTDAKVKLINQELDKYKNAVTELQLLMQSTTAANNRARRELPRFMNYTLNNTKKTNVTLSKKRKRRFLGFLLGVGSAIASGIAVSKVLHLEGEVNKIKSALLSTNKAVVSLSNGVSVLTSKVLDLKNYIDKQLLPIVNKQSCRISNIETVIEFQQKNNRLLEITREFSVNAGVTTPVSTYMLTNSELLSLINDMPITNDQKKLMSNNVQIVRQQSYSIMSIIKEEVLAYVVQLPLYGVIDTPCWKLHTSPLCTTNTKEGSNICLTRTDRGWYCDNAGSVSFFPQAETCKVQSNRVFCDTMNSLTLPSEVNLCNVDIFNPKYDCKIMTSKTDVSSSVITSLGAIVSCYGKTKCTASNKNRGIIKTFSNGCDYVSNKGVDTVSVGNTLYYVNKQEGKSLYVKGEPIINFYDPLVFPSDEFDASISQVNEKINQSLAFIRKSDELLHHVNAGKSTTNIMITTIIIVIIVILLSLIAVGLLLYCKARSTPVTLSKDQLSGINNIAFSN

Consider palivizumab (antibody), for which the Estimated half-maximal effective antibody concentration (ng/mL), plaque neutralisation on Vero cells in assay [1] was 100 ng/mL; in assay [2], 200 ng/mL. Further, the binding of RSV to the coated mAb, % of binding with control IgG in assay [3] turned out to be 29.2%; in assay [4], 35.3%.

On to “unrelated fully human monoclonal IgG1 antibody (control)”, for which the Estimated half-maximal effective antibody concentration (ng/mL), plaque neutralisation on Vero cells in assay [1] and in assay [2] was above 1000 ng/mL throughout. In addition, the binding of RSV to the coated mAb, % of binding with control IgG in assay [5] and in assay [6] was 100% throughout.
